This is an account of results in PMC3161976, “Transportin 3 Promotes a Nuclear Maturation Step Required for Efficient HIV-1 Integration” (PLoS Pathogens, 2011).

The target of this assay is RanQ69L-GTP (UniProt P62826 1-216, Q69L). As to the kind of experiment: pull-down; GST-Tnp3 or its deletion mutants held on glutathione-Sepharose 4B beads, with RanQ69L-GTP and G2 tRNA, equimolar tRNA and Tnp3; binding buffer 50 mM Hepes pH 7.3, 200 mM NaCl, 2 mM Mg(Ac)2, 10 µM GTP; 4°C; 15% SDS-PAGE and silver staining. Particulars: both partners purified.

B1: GST-Tnp3 DC880 deletion mutant (domain or fragment)
chain: MEGAKPTLQLVYQAVQALYHDPDPSGKERASFWLGELQRSVHAWEISDQLLQIRQDVESCYFAAQTMKMKIQTSFYELPTDSHASLRDSLLTHIQNLKDLSPVIVTQLALAIADLALQMPSWKGCVQTLVEKYSNDVTSLPFLLEILTVLPEEVHSRSLRIGANRRTEIIEDLAFYSSTVVSLLMTCVEKAGTDEKMLMKVFRCLGSWFNLGVLDSNFMANNKLLALLFEVLQQDKTSSNLHEAASDCVCSALYAIENVETNLPLAMQLFQGVLTLETAYHMAVAREDLDKVLNYCRIFTELCETFLEKIVCTPGQGLGDLRTLELLLICAGHPQYEVVEISFNFWYRLGEHLYKTNDEVIHGIFKAYIQRLLHALARHCQLEPDHEGVPEETDDFGEFRMRVSDLVKDLIFLIGSMECFAQLYSTLKEGNPPWEVTEAVLFIMAAIAKSVDPENNPTLVEVLEGVVRLPETVHTAVRYTSIELVGEMSEVVDRNPQFLDPVLGYLMKGLCEKPLASAAAKAIHNICSVCRDHMAQHFNGLLEIARSLDSFLLSPEAAVGLLKGTALVLARLPLDKITECLSELCSVQVMALKKLLSQEPSNGISSDPTVFLDRLAVIFRHTNPIVENGQTHPCQKVIQEIWPVLSETLNKHRADNRIVERCCRCLRFAVRCVGKGSAALLQPLVTQMVNVYHVHQHSCFLYLGSILVDEYGMEEGCRQGLLDMLQALCIPTFQLLEQQNGLQNHPDTVDDLFRLATRFIQRSPVTLLRSQVVIPILQWAIASTTLDHRDANCSVMRFLRDLIHTGVANDHEEDFELRKELIGQVMNQLGQQLVSQLLHTCCFCLPPYTLPDVAEVLWEIMQVDRPTFCRWLENSLKGLP
notes: Transportin 3 (Tnp3), human, C-terminal deletion mutant DC880; made by PCR from pGST-TRN-SR2 with the Tnp3 forward primer (from the start ATG) and the DC880 reverse primer, cloned into pGEX-2T; source: E. coli BL21(DE3), purified (glutathione-Sepharose beads, Superdex 200 gel filtration); not shown: GST, N-terminal, kept
Take B1: the binding result is listed as “binds”.

B2: GST-Tnp3 DC825 deletion mutant (domain or fragment)
chain: MEGAKPTLQLVYQAVQALYHDPDPSGKERASFWLGELQRSVHAWEISDQLLQIRQDVESCYFAAQTMKMKIQTSFYELPTDSHASLRDSLLTHIQNLKDLSPVIVTQLALAIADLALQMPSWKGCVQTLVEKYSNDVTSLPFLLEILTVLPEEVHSRSLRIGANRRTEIIEDLAFYSSTVVSLLMTCVEKAGTDEKMLMKVFRCLGSWFNLGVLDSNFMANNKLLALLFEVLQQDKTSSNLHEAASDCVCSALYAIENVETNLPLAMQLFQGVLTLETAYHMAVAREDLDKVLNYCRIFTELCETFLEKIVCTPGQGLGDLRTLELLLICAGHPQYEVVEISFNFWYRLGEHLYKTNDEVIHGIFKAYIQRLLHALARHCQLEPDHEGVPEETDDFGEFRMRVSDLVKDLIFLIGSMECFAQLYSTLKEGNPPWEVTEAVLFIMAAIAKSVDPENNPTLVEVLEGVVRLPETVHTAVRYTSIELVGEMSEVVDRNPQFLDPVLGYLMKGLCEKPLASAAAKAIHNICSVCRDHMAQHFNGLLEIARSLDSFLLSPEAAVGLLKGTALVLARLPLDKITECLSELCSVQVMALKKLLSQEPSNGISSDPTVFLDRLAVIFRHTNPIVENGQTHPCQKVIQEIWPVLSETLNKHRADNRIVERCCRCLRFAVRCVGKGSAALLQPLVTQMVNVYHVHQHSCFLYLGSILVDEYGMEEGCRQGLLDMLQALCIPTFQLLEQQNGLQNHPDTVDDLFRLATRFIQRSPVTLLRSQVVIPILQWAIASTTLDHRDANCSVMRFLRDLIHTGVANDHEEDFELRKELIGQV
notes: Transportin 3 (Tnp3), human, lacking the last C-terminal 98 residues; made by PCR from pGST-TRN-SR2 with the Tnp3 forward primer (from the start ATG) and the DC825 reverse primer, cloned into pGEX-2T; also called ΔC; C-term deleted Tnp3; source: E. coli BL21(DE3), purified (glutathione-Sepharose beads, Superdex 200 gel filtration); not shown: GST, N-terminal, kept
As for B2, the binding result was “binds”.

B3: GST-Tnp3 (Transportin 3), full length (natural protein)
chain: MEGAKPTLQLVYQAVQALYHDPDPSGKERASFWLGELQRSVHAWEISDQLLQIRQDVESCYFAAQTMKMKIQTSFYELPTDSHASLRDSLLTHIQNLKDLSPVIVTQLALAIADLALQMPSWKGCVQTLVEKYSNDVTSLPFLLEILTVLPEEVHSRSLRIGANRRTEIIEDLAFYSSTVVSLLMTCVEKAGTDEKMLMKVFRCLGSWFNLGVLDSNFMANNKLLALLFEVLQQDKTSSNLHEAASDCVCSALYAIENVETNLPLAMQLFQGVLTLETAYHMAVAREDLDKVLNYCRIFTELCETFLEKIVCTPGQGLGDLRTLELLLICAGHPQYEVVEISFNFWYRLGEHLYKTNDEVIHGIFKAYIQRLLHALARHCQLEPDHEGVPEETDDFGEFRMRVSDLVKDLIFLIGSMECFAQLYSTLKEGNPPWEVTEAVLFIMAAIAKSVDPENNPTLVEVLEGVVRLPETVHTAVRYTSIELVGEMSEVVDRNPQFLDPVLGYLMKGLCEKPLASAAAKAIHNICSVCRDHMAQHFNGLLEIARSLDSFLLSPEAAVGLLKGTALVLARLPLDKITECLSELCSVQVMALKKLLSQEPSNGISSDPTVFLDRLAVIFRHTNPIVENGQTHPCQKVIQEIWPVLSETLNKHRADNRIVERCCRCLRFAVRCVGKGSAALLQPLVTQMVNVYHVHQHSCFLYLGSILVDEYGMEEGCRQGLLDMLQALCIPTFQLLEQQNGLQNHPDTVDDLFRLATRFIQRSPVTLLRSQVVIPILQWAIASTTLDHRDANCSVMRFLRDLIHTGVANDHEEDFELRKELIGQVMNQLGQQLVSQLLHTCCFCLPPYTLPDVAEVLWEIMQVDRPTFCRWLENSLKGLPKETTVGAVTVTHKQLTDFHKQVTSAEECKQVCWALRDFTRLFR
notes: also called GST-Tnp3 (FL); TRN-SR2; source: E. coli BL21(DE3), purified (glutathione-Sepharose beads, dialysis); not shown: GST, N-terminal, kept
Consider B3, for which the binding result is recorded as “binds”.
